The source of these data is patent US20220025002A1 (INSTITUT PASTEUR, published 2022).

The target of assay [1] is T1, CC2-LZ domain of NEMO (mouse CC2-LZ) (mouse, UniProt O88522 251-337, limits assumed).
T1 construct: domain: CC2-LZ; The methods say that the mouse CC2-LZ was used in the fluorescence anisotropy assay; also called NOA; UBAN
Nature of the assay: fluorescence polarization, labelled peptide fixed at 0.1 µM, CC2-LZ titrated.
Protocol: (§1) Anisotropy data were calculated using the Magellan software version 6.5. Prior experiments, the mouse CC2-LZ was extensively dialyzed in binding buffer containing 20 mM HEPES pH 7.4, 100 mM NaCl, and 0.05% P20 detergent (v/v). All experiments were performed in a 384 well plate (vol 25 μl) at room temperature. The BODIPY®-labeled peptide concentrations were fixed at 0.1 or 10 μM whereas the CC2-LZ concentration varied from 0 to 100 μM. Reference calibrated at 22 mP, was based on the fluorescence of the peptide alone. Each experimental binding curve was determined from at least 10 independent concentration points. The G-factor was calculated as previously described in Agou et al. [7], with a value of 0.75, which was observed constant within 5% upon all titrations. For analysis, the blank value corresponding to the value of buffer alone, was subtracted from all titration data. The integration time was 20 μs. Experiments were done in duplicate, and the KD was estimated by fitting the anisotropy data with the rectangular hyperbolic binding equation, using KaleidaGraph software as described elsewhere [1].
(§2) For each peptide titration, various concentration of the target ranging from 0 to 100 μM and a fixed concentration of peptide at 0.1 or 10 μM were used at 25° C. […] For these reasons, all further titration experiments were performed with a fixed peptide concentration of 0.1 μM unless otherwise indicated.

Assay [2] deals with T1, CC2-LZ domain of NEMO (mouse CC2-LZ). Nature of the assay: fluorescence polarization, labelled peptide fixed at 10 µM, CC2-LZ titrated.
Protocol: as §1, §2
For assay [3], the target named is T2, NEMO (NF-kB essential modulator) in 70Z3-C3 pre-B lymphocytes (UniProt O88522 1-412, limits assumed). The assay can be described thus: cell-based or functional assay.
T2 sequence (O88522 whole entry, the tested form may be a part): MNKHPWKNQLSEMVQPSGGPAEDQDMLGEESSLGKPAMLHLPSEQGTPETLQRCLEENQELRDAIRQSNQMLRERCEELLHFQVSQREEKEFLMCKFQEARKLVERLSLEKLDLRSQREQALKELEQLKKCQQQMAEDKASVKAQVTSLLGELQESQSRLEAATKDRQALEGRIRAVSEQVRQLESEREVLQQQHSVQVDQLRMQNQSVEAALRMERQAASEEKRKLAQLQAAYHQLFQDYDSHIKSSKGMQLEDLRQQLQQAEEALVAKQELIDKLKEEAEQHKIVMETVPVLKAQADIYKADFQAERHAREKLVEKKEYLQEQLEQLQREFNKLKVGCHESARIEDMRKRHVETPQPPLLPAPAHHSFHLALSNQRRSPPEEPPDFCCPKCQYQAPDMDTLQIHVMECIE
Assay [4] has as its target T1, CC2-LZ domain of NEMO (mouse CC2-LZ). Nature of the assay: fluorescence polarization, labelled peptide, CC2-LZ titrated.
The target in assay [5] is T2, NEMO (NF-kB essential modulator) in …. The assay can be described thus: cell-based or functional assay. The source holds these as a separate data set.
Assay [6] has as its target NEMO (NF-kB essential modulator), human, in DLBCL cell lines (human, UniProt Q9Y6K9 1-419). The assay can be described thus: cell-based or functional assay.

Bridges are numbered along the chain shown (N, C = ends). Where no end group is shown, it is not given here. [ ]: non-standard residue; d: D form. GluOMe = glutamic acid methyl ester; R8 = C=CCCCCCC[C@@](C)(N)C(=O)O; S5 = C=CCCC[C@](C)(N)C(=O)O; Aib = CC(C)(N)C(=O)O

T1 sequence (O88522 251-337 limits assumed): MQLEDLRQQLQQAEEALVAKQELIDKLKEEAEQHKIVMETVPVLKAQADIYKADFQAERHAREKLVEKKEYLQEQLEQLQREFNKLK
Sequence of NEMO (NF-kB essential modulator), human, in DLBCL cell lines (Q9Y6K9 whole entry): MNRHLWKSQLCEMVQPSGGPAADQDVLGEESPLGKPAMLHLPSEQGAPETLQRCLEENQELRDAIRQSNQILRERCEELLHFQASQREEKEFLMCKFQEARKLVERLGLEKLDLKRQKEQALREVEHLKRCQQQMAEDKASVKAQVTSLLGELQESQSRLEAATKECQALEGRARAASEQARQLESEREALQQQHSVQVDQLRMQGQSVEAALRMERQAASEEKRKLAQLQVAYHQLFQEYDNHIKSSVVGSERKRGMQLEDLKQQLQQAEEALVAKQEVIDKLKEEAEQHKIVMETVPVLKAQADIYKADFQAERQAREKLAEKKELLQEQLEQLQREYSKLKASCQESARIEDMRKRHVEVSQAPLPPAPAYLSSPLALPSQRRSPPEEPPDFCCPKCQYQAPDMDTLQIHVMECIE

B1: UBI-SAHN A303-A310, conformer B (peptide)
peptide: Ac-CLK[R8]QADIYK[S5]RFQAERHAREK
modifications: staple 4-11; not fully specified (C-terminus); also: extra N-terminal Cys labelled with BODIPY or FITC (label not settled), staple isomer B (trans)
notes: also called UBI-SAHNA303-A310 (B)
In assay [1], B1 yielded a Kd of 211 µM.

B2: Co-UBI-SAHN I307-A314, conformer A (peptide)
peptide: Ac-CELAQLQAELD[R8]VQAVVQ[S5]DKQELRKL
modifications: staple 12-19; not fully specified (C-terminus); also: extra N-terminal Cys labelled with BODIPY or FITC (label not settled), staple isomer A (cis)
notes: 26 aa control peptide; also called Co-SAHN I307-A314 (A); I307 R8-A314 S5
For the molecule B2, the Kd in assay [2] was > 10000 µM.

B3: UBI-SAHN D306-Q313 OMe (peptide)
peptide: Ac-CLKAQA[R8]IYKARF[S5]A[GluOMe]RHAR[GluOMe]K
modifications: staple 7-14; also: N-terminal Cys labelled with BODIPY or FITC (which one not given here)
notes: also called D306 R8-Q313 S5 E315MeGlu E320MeGlu
Take B3: in assay [3], the “IC50, NF-κB inhibition in 70Z3-C3 reporter cells” value (“IC50, NF-κB inhibition” below) stood at 1.9 µM. This molecule displayed a Kd in assay [4] of 24 µM.

B4: A-UBI-SAHN D306-Q313, conformer A (peptide)
peptide: Ac-CRQIKIWFQNRRMKWKKLKAQA[R8]IYKARF[S5]AERHAREK-NH2
modifications: staple 23-30; also: extra N-terminal Cys labelled with BODIPY or FITC (label not settled), staple isomer A (cis)
notes: With N-terminal antennapedia; also called A-UBI-SAHND306-Q313 (A)
With B4, the Kd in assay [1] amounted to 0.06 µM. For the same molecule, the “IC 50(µM), NF-κB inhibition in LPS-stimulated 70Z3-C3 lacZ reporter cells” value (from here on “IC 50(µM), NF-κB inhibition”) in assay [5] is 0.6 µM.

B5: UBI-SAHN A303-A310, conformer A (peptide)
peptide: Ac-CLK[R8]QADIYK[S5]RFQAERHAREK
modifications: staple 4-11; not fully specified (C-terminus); also: extra N-terminal Cys labelled with BODIPY or FITC (label not settled), staple isomer A (cis)
notes: also called UBI-SAHNA303-A310 (A); A303 R8-A310 S5
In assay [1], B5 showed a Kd of 76 µM.

B6: UBI-SAHN A310-A314 (peptide)
peptide: Ac-CLKAQADIYK[S5]RFQ[S5]ERHAREK
modifications: staple 11-15; also: N-terminal Cys thiol labelled with BODIPY or FITC (BODIPY FL maleimide)
notes: Stapled i,i+4; also called A310S5-A314 S5
As to B6, the Kd in assay [1] was ~360 µM.

B7: A-UBI-SAHN A303-A310, conformer A (peptide)
peptide: Ac-CRQIKIWFQNRRMKWKKLK[R8]QADIYK[S5]RFQAERHAREK-NH2
modifications: staple 20-27; not fully specified; also: conformer A
notes: With N-terminal antennapedia; also called A-UBI-SAHNA303-A310 (A)
In assay [1], B7 came in with a Kd of 0.3 µM.

B8: UBI-SAHN A303-I307 (peptide)
peptide: Ac-CLK[S5]QAD[S5]YKARFQAERHAREK
modifications: staple 4-8; also: N-terminal Cys thiol labelled with BODIPY or FITC (BODIPY FL maleimide)
notes: Stapled i,i+4; also called A303 S5-I307 S5
As to B8, the Kd in assay [1] is ~360 µM.

B9: A-UBI-SAHN D306-Q313, conformer B (peptide)
peptide: Ac-CRQIKIWFQNRRMKWKKLKAQA[R8]IYKARF[S5]AERHAREK-NH2
modifications: staple 23-30; also: extra N-terminal Cys labelled with BODIPY or FITC (label not settled), staple isomer B (trans)
notes: With N-terminal antennapedia; also called A-UBI-SAHND306-Q313 (B)
For B9, in assay [1], binding was put at a Kd of 0.05 µM.

B10: A-UBI-SAHN A310-A314 (peptide)
peptide: Ac-CRQIKIWFQNRRMKWKKLKAQADIYK[S5]RFQ[S5]ERHAREK-NH2
modifications: staple 27-31; also: N-terminal Cys thiol labelled with BODIPY or FITC (BODIPY FL maleimide)
notes: Stapled i,i+4 with N-terminal antennapedia
In the case of B10, the Kd in assay [1] was determined as 0.2 µM; in assay [2], 21 µM. In addition, the “IC 50(µM), NF-κB inhibition” value in assay [5] was found to be 0.43 µM.

Consider LKAQA[S5]IYK[S5]RFQAQRHARQK (staple 6-10) [UBI-SAHN D306-A310 with the double substitution Glu-Gln (E315Q E320Q)], for which the “IC50, NF-κB inhibition” value in assay [3] was 1.3 µM.

B11: A-UBI-SAHN A303-A310, conformer B (peptide)
peptide: Ac-CRQIKIWFQNRRMKWKKLK[R8]QADIYK[S5]RFQAERHAREK-NH2
modifications: staple 20-27; also: Cys1 thiol labelled with BODIPY or FITC (which one not fixed), conformer B
notes: With N-terminal antennapedia
Take B11: the Kd in assay [1] was determined as 0.02 µM. In assay [5], the “IC 50(µM), NF-κB inhibition” value is 0.6 µM.

As to CRQIKIWFQNRRMKWKKLK[Aib]Q[Aib]DIYK[Aib]RFQ[Aib]ERH[Aib]REK (also: N-terminal Cys labelled with BODIPY or FITC) [A-UBI-AIB], the Kd in assay [1] was 5 µM; in assay [2], 24 µM. In assay [5], the “IC 50(µM), NF-κB inhibition” value came to 1.5 µM.

B12: Co-UBI-SAHN I307-A314, conformer B (peptide)
peptide: Ac-CELAQLQAELD[R8]VQAVVQ[S5]DKQELRKL
modifications: staple 12-19; not fully specified (C-terminus); also: extra N-terminal Cys labelled with BODIPY or FITC (label not settled), staple isomer B (trans)
notes: 26 aa control peptide; also called Co-SAHN I307-A314 (B)
As for B12, the Kd in assay [2] is > 10000 µM.

B13: A-UBI-SAHN D306-Q313 OMe (peptide)
peptide: Ac-CRQIKIWFQNRRMKWKKLKAQA[R8]IYKARF[S5]A[GluOMe]RHAR[GluOMe]K-NH2
modifications: staple 23-30; also: N-terminal Cys labelled with BODIPY or FITC, which one is not given here
Turning to B13, the Kd in assay [4] was found to be 0.06 µM.

B14: UBI-SAHN D306-A310 (peptide)
peptide: Ac-CLKAQA[S5]IYK[S5]RFQAERHAREK
modifications: staple 7-11; also: N-terminal Cys labelled with BODIPY or FITC, which one is not given here
notes: Stapled i,i+4; also called D306 R8-A310 S5
Take B14: the Kd in assay [1] turned out to be 85 µM.

RQIKIWFQNRRMKWKKLKAQA[R8]IYKARF[S5]AERHAREK (staple 22-29; also: staple conformer not given here) [A-UBI-SAHN D306-Q313 (conformer not stated)]: in assay [6], the “EC50 of cell death, HLY1 cells, depending on incubation time” value was in the range of 0.65 to 1.1 µM; the “EC50 of cell death, OCY-Ly3 cells, 7 h” value stood at 2.6 µM; the “EC50 of cell death, OCY-Ly3 cells, 24 h” value came out at 2.1 µM; the “EC50 of cell death, OCY-Ly3 cells, 48 h” value turned out to be 5 µM.

B15: UBI-SAHN D306-Q313 Q/Q (peptide)
peptide: Ac-CLKAQA[R8]IYKARF[S5]AQRHARQK
modifications: staple 7-14; not fully specified (C-terminus); printed as LKAQAX2IYKARFX5AQRHARQK; also: extra N-terminal Cys labelled with BODIPY or FITC, staple cis/trans isomer not given here
notes: also called D306 R8-Q313 S5 E315Q E320Q
Consider B15, for which, in assay [3], the “IC50, NF-κB inhibition” value was determined as 0.8 µM. Besides, binding in assay [4] was characterised by a dissociation constant (Kd) of 23 µM.

Turning to CLK[Aib]Q[Aib]DIYK[Aib]RFQ[Aib]ERH[Aib]REK (also: extra N-terminal Cys carries BODIPY or FITC label (not settled)) [UBI-AIB], the Kd in assay [1] and in assay [2] was > 10000 µM in each case.
